Assay results from patent publication US20120316071A1 (published 2012).

Assays:
[1] = target: T1, Recombinant Human DLL4 (delta-like protein 4) (human, UniProt Q9NR61 27-524); experiment: ECL binding assay on immobilized DLL4, Fab at 0.04 µM
T1 construct: Bought recombinant human DLL4 (R&D Systems Cat#1506-D4/CF); also called rHuman DLL4; Delta-like ligand 4

[2] = target: T2, Recombinant Human DLL4 (delta-like protein 4) (human, UniProt Q9NR61 27-524); experiment: ELISA, DLL4 coated plate, Fab in solution; average signal minus noise
T2 construct: Bought recombinant human DLL4 (R&D Systems Cat#1506-D4/CF), coated on the plate; also called rHuman DLL4; Delta-like 4

[3] = target: T2, Recombinant Human DLL4 (delta-like …); experiment: ECL (MSD) 96-well plate assay, recombinant human DLL4 coated, Fab in solution

| Binder | Signal/Noise (0.04 µM) [1] | ELISA (Avgerage signal-noise) [2] | ECL signal [3] |
| --- | --- | --- | --- |
| Fab VH5-51_IGHD5-18*01>3_IGHJ4*01 & V3-4_IGLJ1*01 (Fab, V domains shown, Fab expressed in E. coli; VH was cloned into Plasmid A (CH1, His6 and Flag tags) and VL into Plasmid E (lambda CL); also called wildtype; parent Hit Fab VH5-51_IGHD5-18*01>3_IGHJ4*01 & V3-4_IGLJ1*01) VH: EVQLVQSGAEVKKPGESLKISCKGSGYSFTSYWIGWVRQMPGKGLEWMGIIYPGDSDTRYSPSFQGQVTISADKSISTAYLQWSSLKASDTAMYYCARRGYSYGYDYFDYWGQGTLVTVSS VL: QTVVTQEPSFSVSPGGTVTLTCGLSSGSVSTSYYPSWYQQTPGQAPRTLIYSTNTRSSGVPDRFSGSILGNKAALTITGAQADDESDYYCVLYMGSGISYVFGTGTKVTVL | 14.7 |  |  |
| Fab VH5-51_IGHD5-18*01>3_IGHJ4*01 Y103A & V3-4_IGLJ1*01 (Fab, V domains shown, Fab with CH1 (Plasmid A, His6 and Flag tags) and lambda CL (Plasmid E)) VH: EVQLVQSGAEVKKPGESLKISCKGSGYSFTSYWIGWVRQMPGKGLEWMGIIYPGDSDTRYSPSFQGQVTISADKSISTAYLQWSSLKASDTAMYYCARRGYSAGYDYFDYWGQGTLVTVSS VL: QTVVTQEPSFSVSPGGTVTLTCGLSSGSVSTSYYPSWYQQTPGQAPRTLIYSTNTRSSGVPDRFSGSILGNKAALTITGAQADDESDYYCVLYMGSGISYVFGTGTKVTVL | 1.2 |  |  |
| Fab VH5-51_IGHD5-18*01>3_IGHJ4*01 G100A & V3-4_IGLJ1*01 (Fab, V domains shown, Fab with CH1 (Plasmid A, His6 and Flag tags) and lambda CL (Plasmid E)) VH: EVQLVQSGAEVKKPGESLKISCKGSGYSFTSYWIGWVRQMPGKGLEWMGIIYPGDSDTRYSPSFQGQVTISADKSISTAYLQWSSLKASDTAMYYCARRAYSYGYDYFDYWGQGTLVTVSS VL: QTVVTQEPSFSVSPGGTVTLTCGLSSGSVSTSYYPSWYQQTPGQAPRTLIYSTNTRSSGVPDRFSGSILGNKAALTITGAQADDESDYYCVLYMGSGISYVFGTGTKVTVL | 30.4 |  |  |
| Fab VH5-51_IGHD5-18*01>3_IGHJ4*01 S102A & V3-4_IGLJ1*01 (Fab, V domains shown, Fab with CH1 (Plasmid A, His6 and Flag tags) and lambda CL (Plasmid E)) VH: EVQLVQSGAEVKKPGESLKISCKGSGYSFTSYWIGWVRQMPGKGLEWMGIIYPGDSDTRYSPSFQGQVTISADKSISTAYLQWSSLKASDTAMYYCARRGYAYGYDYFDYWGQGTLVTVSS VL: QTVVTQEPSFSVSPGGTVTLTCGLSSGSVSTSYYPSWYQQTPGQAPRTLIYSTNTRSSGVPDRFSGSILGNKAALTITGAQADDESDYYCVLYMGSGISYVFGTGTKVTVL | 2 |  |  |
| Fab VH5-51_IGHD5-18*01>3_IGHJ4*01 Y105A & V3-4_IGLJ1*01 (Fab, V domains shown, Fab with CH1 (Plasmid A, His6 and Flag tags) and lambda CL (Plasmid E)) VH: EVQLVQSGAEVKKPGESLKISCKGSGYSFTSYWIGWVRQMPGKGLEWMGIIYPGDSDTRYSPSFQGQVTISADKSISTAYLQWSSLKASDTAMYYCARRGYSYGADYFDYWGQGTLVTVSS VL: QTVVTQEPSFSVSPGGTVTLTCGLSSGSVSTSYYPSWYQQTPGQAPRTLIYSTNTRSSGVPDRFSGSILGNKAALTITGAQADDESDYYCVLYMGSGISYVFGTGTKVTVL | 9.6 |  |  |
| Fab VH5-51_IGHD5-18*01>3_IGHJ4*01 G104A & V3-4_IGLJ1*01 (Fab, V domains shown, Fab with CH1 (Plasmid A, His6 and Flag tags) and lambda CL (Plasmid E)) VH: EVQLVQSGAEVKKPGESLKISCKGSGYSFTSYWIGWVRQMPGKGLEWMGIIYPGDSDTRYSPSFQGQVTISADKSISTAYLQWSSLKASDTAMYYCARRGYSYAYDYFDYWGQGTLVTVSS VL: QTVVTQEPSFSVSPGGTVTLTCGLSSGSVSTSYYPSWYQQTPGQAPRTLIYSTNTRSSGVPDRFSGSILGNKAALTITGAQADDESDYYCVLYMGSGISYVFGTGTKVTVL | 15.5 |  |  |
| Fab VH1-46_IGHD6-6*01_IGHJ1*01 S102A/S103P/S104F/H111F (H:APFF) & L6_IGKJ1*01 S28N/S30D/S31H A55S (Fab, V domains shown, Fab made in E. coli: heavy chain from Plasmid A (CH1, His6 and Flag tags), kappa light chain from Plasmid C (kappa CL); also called H:APFF & L:NDH A55S) VH: QVQLVQSGAEVKKPGASVKVSCKASGYTFTSYYMHWVRQAPGQGLEWMGIINPSGGSTSYAQKFQGRVTMTRDTSTSTVYMELSSLRSEDTAVYYCAREEYAPFSAEYFQFWGQGTLVTVSS VL: EIVLTQSPATLSLSPGERATLSCRASQNVDHYLAWYQQKPGQAPRLLIYDASNRSTGIPARFSGSGSGTDFTLTISSLEPEDFAVYYCQQRSNWPPWTFGQGTKVEIKR |  | 0.383 | 20000 |
